Source: the NTF2 design screens of Basanta et al. (2020)

Assay: protease stability score; higher = more stable; yeast display proteolysis, trypsin and chymotrypsin;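 note: relative to predicted unfolded state with 0 unfolded-like and 1 meaning tenfold more protease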

Sequence: DDLEQESHKVFEQYVRDWRTGDEHNVERLADPHVRVLYNGRHSHGWKEFLEHFSRDAQQADHTEFRIDDTDHQGDKMVLNETVILRYGDKEIQIEVELIYRKIDGRWYITEVRFR
- protease stability score: 0.204

Sequence: DDLEREAEEFHRLMHKSVRTGDEKLIEEMFDPNVRLDINGREMHGRHDVVELERRVDHSEWHIEDIRVVGEWADIRGELVIQVGDKEHIYKTRLIVLKIDGKWRTTEMHVR
- protease stability score: 0.731

Sequence: DDLEREAKTMVDRFRELMATGDFEEREHLVDPNTRWHVNGQDFHGRELITEILIKKFEDLGVEKITFRVERIRVVGDKIEVDGVLIIDGREIDTRLNWTKVNGRWIIKFESEK
- protease stability score: 0.927

Sequence: DDLERLVRELLDLWKRALKTGDEDVLSKMFDPDVRLTINGQVSVGREDVLRLWQEWRVDRMEERDVTVQGDKIHMDGHSHVEYDGRRIEVRHEIILVIVNGRAKSQEVRIR
- protease stability score: 1.62

Sequence: DDLETMFRRLFREWIERAETGDESRLRHLADPHYRSDQGDYDLHGREFAHEFLSRLWKELRFTIHIRHMYVYDGRVEVDGEIRVRINGRETTHKIRIEIVIVDGRIESEHIEIR
- protease stability score: 1.26

Sequence: DDLHEDTKRYLKEWIDLMYTGDEEKIFENMDPNTRIIDENHELHGREEVKDWARRMARELRHREFELTHLEVQGNFIHVRGLLIGDQGDKVIIRDVEIISIKINGRWRIESVRFE
- protease stability score: 2.34

Sequence: DDLHRNMKKVADLFIQVWLTGDFEELMHLFDPNVRLKVNGVEMHGRDDFAKFVKEHRERIDHMHFRLDELRIYGDKIVIHGTLHLHQGEKDWHHEVHIHLLVIDGVIRTVEEEER
- protease stability score: 2.08

Sequence: DDLKEDADKYSDLEREARQTGDEDFISNLMDPNVLVLINGREIHGREDVLKWLVDLRRKLGVDRFRSEVEDKHIDVQGDKIRIHGILRLNFNGQHFRIDVHIIFQKVDGRWHVREERYH
- protease stability score: 1.41

Sequence: DDMEEMAKEVFREWFEIVETGDEEKLLKLIDPNTRVDINGQEVHGREDISRITSKLIRELGVKHIRSEVKSFDIVGNKIRVRGLEIRDVGDKHKEIHTHFFIMKIDGKWVITNMHFH
- protease stability score: 1.5

Sequence: DDMEKETRQFTKLWIEALETGDEDFIKHLVDPHAKITVNGVEYHGMESMKDELKKIKNVRMEIKDVRVFNGVSKIDMESHFDGRTHDTRIEIFVVDGRFKEVRLHIR
- protease stability score: 1.01

Sequence: DDMERHARKALRVLIESLMTGDEDDIYRMLDPHVRYIFDGVDFHGRERTKETLERLSREFGLSRVHTELKDSKVYDGRLELHLEVNVDGRRRTVIVHVVKIDGKWYVEELRVQ
- protease stability score: 1.26

Sequence: DDMERHNRWFLRDLIHAIVTGDEELEERLFDPNAKVHIDGVTFIGRELVEFLRKRVDHRRMHVKRTDSQGEYLINHTELILHINGKDVRTDTVWIFHKFNGQWVVHTMEVK
- protease stability score: 0.815

Sequence: DDMHEVAKQLMEELVRNWITGNEDNVRHLLDPDVRIIIGDFIFHGRESLELLLHFYNKHIRWTDYKVHDFRIQGDYLHMDTRLIGIIDGRHVILETQMVAVKINGRWRVKSLEVR
- protease stability score: 2.11

Sequence: DDMHRELRKLAEEIEKLIETGDEDRLRTLLDPHTRVEIGDWSDMGWDAIHKMIRHIRIDSVTIRREHFFNGRVHTDIEVDGTIGDKKDIRHVELEIVIVDGRVKEIKMIYV
- protease stability score: 2.13

Sequence: DDMQEIVLRIAEELIHRETTGDEEFIKRLLDPRVRLEINGVDSIGMEEFWRFLFEEEHKLGVDHVRFDIKHIRVVDGRAHSIGILNLNINGKEHRFDVRIDIVVIDGRVREVRIEIR
- protease stability score: 2.51

Sequence: DDNEELTERFMKHLIRAQQTGDWERLKELFDPNTRLIVGEKHVVGREHFINEWLEHHNKLGIDHSQIELHNLRIINGKAHIDGHFIEEFNGKRIEIRIEVVIVKINGRWLIKEIHFI
- protease stability score: 1.44

Sequence: DDNEETVERTFKYFIDSLRTGNEEDMYEMADPNVKIEIGDKRLHGREKFRDHMHELSRRADHIQVHLRIHDIQGEFLHLDVELILDVNGKELRIKVHFVAFKFNGRWRLRSMRQT
- protease stability score: 1.04

Sequence: DDNTKHAHELVERWRHIIETGDEDIMEEMLDPNVRLLIGDKDLHGRETVEIWLRVLIRRFKNVRLESVHLESVEIQGNKAFSRVRVDLRYNGREDSMDVVVVVYKIDGRWRVHELSVH
- protease stability score: 1.77

Sequence: DDQDTNSELAVHLWILSMITGDERFLNEYMDPNAKVHVGDKEYHGREAYEFLRHRVDHIRESHIRRVHTQGNKVRVDVEFRIEVDGREINVRTELVLIKINGQWRFTEFTFK
- protease stability score: 2.22

Sequence: DDQEEFLQRLVEELLRIIETGDWRRFWELLDPNMRVDVDGREIHGMEILVTIIRELWRKLGIDHVHIRLDHVEAFNGQAHAETTVDLRYDGQIIIRESRNHFIIIDGKVEDEKYELR
- protease stability score: 0.279

Sequence: DDQEEWAKIAMEMILEFLKTGDEELMLELLDPNVRVHLLIDGRHFEDHGRKATRWVIRFIKNVQVKIHNIEYQGDKVHIDVHVDVNGRKTRSREIWTLVDGRIEHVDVQDR
- protease stability score: 1.2

Sequence: DDQEKLVRKAWELLVRHLHTGDEEHLDKLIDPNTRMTYNGRETHGMELFSHLMTHLRVKDMDLKEVRIVDGRAILDGHLHGEIDGRETTTRTTYIILKIDGRWFVKSVRFE
- protease stability score: 1.15

Sequence: DDRDEVVEVASRLWMEIVETGDEDLFIRLLDPRTRIHIGDKTLHGREQVLDFLREHNRNLGIDRVEVRVERTEIQGEKVVVHSINIFNGKEWHVITIAHKINGRWITKEFHLH
- protease stability score: 0.834

Sequence: DDRDREARKLIQEITHALHTGDEELMEHMLDPSVRTNINGKDIHGMDLFYKWLIELVRRLGADHLNFEVKRVQLYGNKLNTDGHLFVHQGDFTILLNVRWYNLKVNGKWIHESIEIR
- protease stability score: 1.45

Sequence: DDREEDLHKALHLFRMTMLTGNEDLFRDLADPHTRVSVNGQELIGREHMEHWWKRVDHIEDSRLERVDIVDGVVLVDGRFVGTVNGRRIDTEYTIFAQKVNGQWILHSVKIV
- protease stability score: 1.19

Sequence: DDREEELQHLMELILFLLVTGNEEIWMRMADPDVKSRISIGDKQETYHGRETVARYMIHERHFYKNIQVKFDDVQVQGDKVIVILTFHWNGREIEVIHTFIVINGKLTSWEVRFIHR
- protease stability score: 1.42

Sequence: DDREEELRKMTELMLKAEQTGDEDHWMHLADPHVRVIVNGREFIGREEWARHHEEHRRKVKNIRIHVRIRDSEVQGDKLILDTELELRIGDKTIIRDVEINMTIINGRLRSLEIRIK
- protease stability score: 1.17

Sequence: DDREEHAKELVDLFQKVMLTGDFKTLEELIDPNYRLHVNGQDVHGMERVIRHIFHMRFQDVKVKRIDHQGNKIDMDVRSIVNVDGRLHEHEIQLIALKVDGRWTVKSLEVH
- protease stability score: 1.48

Sequence: DDREEKIKRAWETFVHNVRTGDEDSNEELADPNVKVLFNGREFHGMEQLSKFFKHLRVHDFVLKDIRVVGDKVHVEGLVDGEINGKRELTTMHMVFIKFNGRWIIQSVEFK
- protease stability score: 1.53

Sequence: DDREKDSKREVKEFLEMFITGDEERWSKMADPNVRLHFDGVESHGREEALRIMRLLLEQFKNLKVTDVQLTSIEIQGEKALIRTRIHTEVNGKEDSLDVILFATKFDGRWIINSIEIR
- protease stability score: 1.1

Sequence: DDREKETQEFFERWVEAFITGDEHDLHEMLDPHARIHLIIGDKKEDLHGRESAVEVMKRIDHKHEFRIRHLWIFDGRIHVDVKLTGHFDGRTYQHDVHINIKIVDGKIHSIQIEWR
- protease stability score: 2.22

Sequence: DDREKFWKELAKEWFKSLITGDEDSLRKLLDPDVRTIVGDWHIHGMEEVLKFWLELRISDHDSKRIIVINGVNLNDIRSNGNVNGVERETRVELIIEVVDGRVRRVEFRMK
- protease stability score: 2.01

Sequence: DDREKLWHRLVELEKELWLTGDFEDFHSLADPNVQLIVHFDGQEVHYHGRESVTMALKILREQLGADHFEPKSVHYQGNKMQTSMILFVNGREFEFRLTLFVIDGRLKSHHIEWK
- protease stability score: 1.48

Sequence: DDREKYLTKLMELFIEHWRTGDEEAFLEYFDPHVRIEHIFNGQETRRHGRELFSILLTHEWLFFKNVRIHWKRSEVQGEKTVIHMELHVGDKSLKVRIHLDVVDGRVRSVNIEIE
- protease stability score: 0.548

Sequence: DDRERATRELLKLLWDAMKTGDEELFYKLADPDTRMIINGRELHGMEEVSRILLELLTHMRLKNITIRDIDVQGDKVDVHGELHGEVGDKSHTFETHIIILKVNGKWVLRSYIIR
- protease stability score: 1.55

Sequence: DDRERDLRELFKRLHEVLETGNEEEMTELIDPHARRTVGDKKIHGRELIAKHLVHEVLRYDHWHLEMHDWRFQGEKIELHGNFRIEVDGKQIVIDTRLTATKVDGRWRITEIRII
- protease stability score: 0.743

Sequence: DDRERDSREAQEILREILLTGDFKTLYELADPHYRHNWDGRTIHGMETIVKLFLDLGMEIRDMRFRHLEIQGDFIHLDVDINGRINGKEKNVKIRVHARKIDGRWVLHSSERD
- protease stability score: 1.38

Sequence: DDRERERHRFLRELHESLETGDERELTRMLDPHARWVVGDKQHHGRETLTKFVSEVALRADHFHIEISRVREQGEFIDIDVRVILIIGDKVITIDQRLINLKVDGRWFLHERIVH
- protease stability score: 1.05

Sequence: DDRERESEEALRLFIETLETGDEHWLKRLMDPNARLHQGEKTIHGMDIFSTWVVEARLKHYHLERVHIQGDKMDVESHVDGHVNGQRLKVQLIFHSLKIDGRWLVKHIIVH
- protease stability score: 1.4

Sequence: DDRERESKEAVEFFLHAVDTGDFDRIREMLDPHMRVEIDGQEFHGRERALDLIHKEMFDLGVDRIRIEIHDMELVDGRVEVDVHVDVNGRIIRSEYIMKKIDGRWRIHSIKRR
- protease stability score: 1.98

Sequence: DDRERLTKLMSDDFIFSMLTGDEHFMHELIDPHARFLFNGQVHHGWKTMEFWREHLGIDNIHLQIRISDLEIQGDKATVRIDGEVKQGDKSFRTRFIIKVDKIDGRWVIHELRIIVL
- protease stability score: 1.07

Sequence: DDRERQAESMMHLWLEVLLTGDEDRLMKLADPNTRHHVNGVDAHGRENIKRVAKEFDEQMRIHRVEIRQVRIIGDKTEVDGRVDVEVNGRRRDTETHLRVIVIDGRIHEVHLIIR
- protease stability score: 0.725

Sequence: DDRESIAEAVIRHMVEDFRTGNEDNMKRLFDPNTQLRYGDKTHHGWEDVVELLYHDIKHFGIKHVSVDRISVIGEKIHIDMRVEVGDKELTLHFTVDKINGKWKFESVERR
- protease stability score: 0.849

Sequence: DDRHEENKEITRRQFELFETGDEEILHHLADPHVRLRIDGQHNHGREELERSLRELRKELGANVLILRRIRVIGDKMEVEGEFDYNGRNFHATFRFNVIDGRLHSMSIEIR
- protease stability score: 0.832

Sequence: DDRIRQVVEEWWKAVETNDPDKAKENVDKDVRVEVGDKQFRGSETLEKRIRDEKDHARVVVRMQSVSVHGDTVDVTYNVVVEVNGNPLRFKAQAFFRARNGRMQSIQFSFSKEDKKRVDG
- protease stability score: 1.78

Sequence: DDRKEMSEEASEIFLHLLATGDERTERKLLDPHVRLIIGDKHLHGREEFVRFKHEEMRDLGVTNVEVREKDVKVYDGKIELHGHFNVNGKWVEIHVIAEKFNGRWILKRVNFH
- protease stability score: 0.875

Sequence: DDRKKEAHELFEFLLDVFRTGDEKSTEELLDPHTRNVIGDKHYHGRDVWVTFMKKFKNAKVHFNHLEVQGDKVTFDITFEIGDKTHRMRFFLEKYDGRWFIKEIQVD
- protease stability score: 1.44

Sequence: DDRKKEAQRILELFLKIWETGDEEELLKLLDPNVKLHIGDKNIHGMEEATRILTENVREIRTHIVHKRVHIQGDKVELEGELRIHVNGREESNRVHYELIVVNGKVKAIHVHLE
- protease stability score: 1.16

Sequence: DDRSEHAIHAFYEWWERFLTGDEKRLYELADPNTRLHVNGQRIHGMEEIMERILDLLKRVKNMRVDFDVRDVELQGDKIILRIEIILKYNGQKVRIDVHIISRKINGRWFLEQEREE
- protease stability score: 0.558

Sequence: DDRYRLVEHMSRHFFENWLTGDFDRLVELADPTVRSHFEYGDKEILNIGMEEHVKMERHWREKMGANHLFLDDVRIQGNKAHIHGQLDVGDKHNRARLELNIVDGRIKEIYIEIR
- protease stability score: 0.018
